In US20250051409A1 (NATIONAL INSTITUTE FOR BIOTECHNOLOGY IN THE NEGEV, published 2025):

T1: citrate synthase (CS), located in the matrix (endogenous) (UniProt O75390 28-466)
T1 sequence (looked up): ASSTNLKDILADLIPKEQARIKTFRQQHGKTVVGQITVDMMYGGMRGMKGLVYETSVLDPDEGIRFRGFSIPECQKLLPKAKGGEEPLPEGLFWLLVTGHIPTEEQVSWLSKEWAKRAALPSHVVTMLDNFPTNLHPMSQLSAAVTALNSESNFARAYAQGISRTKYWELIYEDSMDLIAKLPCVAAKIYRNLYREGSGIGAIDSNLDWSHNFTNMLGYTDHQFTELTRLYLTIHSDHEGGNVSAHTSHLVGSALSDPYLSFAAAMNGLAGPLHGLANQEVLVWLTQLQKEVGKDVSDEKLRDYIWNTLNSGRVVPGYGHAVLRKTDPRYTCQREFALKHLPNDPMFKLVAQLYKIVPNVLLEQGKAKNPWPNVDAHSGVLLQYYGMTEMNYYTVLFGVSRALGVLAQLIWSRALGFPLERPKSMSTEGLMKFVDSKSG


What was measured:
[1] = molecular target: T1, citrate synthase (CS), located in the …; assay: in situ proximity ligation assay
[2] = molecular target: T2, ATP synthase subunit 5A, inner mitochondria membrane protein (endogenous) (UniProt P25705 44-553, limits assumed); assay: in situ proximity ligation assay
T2 construct: also called ATPsyn5a; ATP5a
T2 sequence (P25705 44-553 limits assumed): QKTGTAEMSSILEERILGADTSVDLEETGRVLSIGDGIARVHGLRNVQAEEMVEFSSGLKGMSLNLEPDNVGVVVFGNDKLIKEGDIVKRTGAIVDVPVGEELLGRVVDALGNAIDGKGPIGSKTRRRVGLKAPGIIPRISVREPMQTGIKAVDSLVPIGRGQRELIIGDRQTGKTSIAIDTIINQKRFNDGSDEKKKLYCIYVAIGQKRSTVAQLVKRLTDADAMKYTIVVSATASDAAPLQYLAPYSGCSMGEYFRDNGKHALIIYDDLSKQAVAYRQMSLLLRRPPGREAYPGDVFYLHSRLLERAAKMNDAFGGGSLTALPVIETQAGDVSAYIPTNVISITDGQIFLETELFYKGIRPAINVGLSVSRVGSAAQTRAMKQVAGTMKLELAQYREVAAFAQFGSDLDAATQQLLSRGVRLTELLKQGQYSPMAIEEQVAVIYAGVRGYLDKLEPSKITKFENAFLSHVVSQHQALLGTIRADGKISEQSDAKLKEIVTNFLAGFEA

binding result [1] | binding result [2] | Binder
no binding |  | PSD, endogenous, in A549 cells (enzyme, Intracellular endogenous protein, detected with antibodies in the proximity ligation assay; also called phosphatidylserine decarboxylase) MMCQSEARQGPELRAAKWLHFPQLALRRRLGQLSCMSRPALKLRSWPLTVLYYLLPLGALRPLSRVGWRPVSRVALYKSVPTRLLSRAWGRLNQVELPHWLRRPVYSLYIWTFGVNMKEAAVEDLHHYRNLSEFFRRKLKPQARPVCGLHSVISPSDGRILNFGQVKNCEVEQVKGVTYSLESFLGPRTCTEDLPFPPAASCDSFKNQLVTREGNELYHCVIYLAPGDYHCFHSPTDWTVSHRRHFPGSLMSVNPGMARWIKELFCHNERVVLTGDWKHGFFSLTAVGATNVGSIRIYFDRDLHTNSPRHSKGSYNDFSVVGSLTR
 | no binding | SMAC/Diablo, endogenous, in A549 cells and A549 xenograft tumor sections (other, human, UniProt Q9NR28 56-239, looked up, Intracellular endogenous protein, detected with antibodies in the proximity ligation assay) AVPIAQKSEPHSLSSEALMRRAVSLVTDSTSTFLSQTTYALIEAITEYTKAVYTLTSLYRQYTSLLGKMNSEEEDEVWQVIIGARAEMTSKHQEYLKLETTWMTAVGLSEMAAEAAYQTGADQASITARNHIQLVKLQVEEVHQLSRKAETKLAEAQIEELRQKTQEEGEERAESEQEAYLRED
